{
  "source": "paper PMC6435710",
  "key": {"[1]": {"target": "salmon Calcitonin (salmon)", "assay": "cross-linking; PICUP (Ru(bpy)3, ammonium persulfate, 2 s light) then tricine SDS-PAGE, silver stain and densitometry; PFOs-enriched SEC fractions (29th and 30th), 80 uM"}, "[2]": {"target": "salmon Calcitonin (salmon)", "assay": "cross-linking; PICUP (Ru(bpy)3, ammonium persulfate, 2 s light) then tricine SDS-PAGE, silver stain and densitometry; native unfractioned Monomer-enriched sample (powder dissolved in desalted water, 80 uM)"}, "[3]": {"target": "salmon Calcitonin (salmon)", "assay": "SEC; Sephadex G50 column at 4 °C, 5 mM phosphate buffer pH 7.4; spontaneously aggregated native sCT (2 mg incubated overnight at room temperature); calibrated with BSA, cytochrome c, aprotinin, somatostatin; absorbance at 280 nm"}},
  "data": [
    {"substance": "salmon Calcitonin (peptide)", "values": [
      {"measurement": "PFOs% (trimers + tetramers + pentamers + hexamers percentage of the gel lane)", "setting": "[1]", "value": 54, "unit": "%"},
      {"measurement": "PFOs% (trimers + tetramers + pentamers + hexamers percentage of the gel lane)", "setting": "[2]", "value": 16.5, "unit": "%"},
      {"measurement": "stoichiometry N", "setting": "[3]", "value": 2}
    ]}
  ]
}
